# Test results as given in the supplement of paper PMC12764529.
# ± gives the half width of the 95% confidence interval.
# Assay: folding stability dG unfold from trypsin proteolysis; higher = more stable
# In short: (§1)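 Mini-proteins designed to be under 80 residues and free of cysteine were carried in a PA-tagged cDNA display construct and digested with trypsin and with chymotrypsin. Each protease was applied at 11 threefold-diluted concentrations, alongside a no-protease condition, before sequencing. K50 came from Bayesian fitting of the sequencing counts, and unfolding free energy was obtained by comparing it with a sequence-predicted unfolded-state K50 and a shared folded-state K50, for each protease separately or for both together. Designs were retained only if their AlphaFold2 dimer inter-PAE exceeded 15.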
row,Sequence,folding stability dG unfold [kcal/mol]
1,SAGKKTVTIVIRLKEPGERLSAEELAALLRELGLPPGAKVTVERRPDGYLVVTVEVDGKTVTIVIELEDSAG [r5_144_TrROS_Hall],2.04 ± 0.04
2,SAGGSAGGSAGGGSITITFKHPDGGEVTIEITPPEPTVRVTVTLPNGEKLEYEFDFVPASAGGSAGGSAGGS [r10_595_TrMRF],3.24 ± 0.22
3,SAGGNNIMIWIRKNPKEGKRKIMIYTDSPSWVEMIAEEAKDPGFKIVGPMTVEEAAQKMGFPPDLFISAGGS [r16_438_TrROS],1.09 ± 0.14
4,SAGGKIEEVARELAKELNAVSIDFRTEGDVPSVEIRFRIPGSPLWLRVTITRDPDGNISVSIEPDPRSAGGS [r16_433_TrMRF],2.94 ± 0.054
5,SAGGSAGGIEITEISRSEELLKLDVPEDTLVLKVKHPDGKEIEVTFPANIPIEEAKEKAKEFVESAGGSAGG [r6_986_TrMRF],-0.248 ± 0.079
6,SAGGSASRRLFVRTLPDDAVIVVEVPPGMSEEEAVEIAERRAEAAERVLRAAIEAERAGKAPVIPLSAGGSA [r15_704_TrMRF],0.594 ± 0.13
7,SAGGSAKRKVEIEIVLSAEELEEAIKEGKPLSEELQKRIEELLKKAEEAGIDEVRIRIVPPGLPEPSAGGSA [r15_304_TrROS_Hall],0.89 ± 0.089
8,SAGGSAPDNKPKPVVREVEFWIMIPFKSAEQAKEIVEELMKFFGGLKVEILEVHPDGYAMIKITIYSAGGSA [r15_387_TrROS],3.68 ± 0.13
9,SAGGSPARPVLVTITLPDGEEVTRRMTLEEIERLVAKDPNVKVTIELPDGSVYTVDPNTGTITKAPSAGGSA [r2_222_JUSTAS],2.84 ± 0.075
10,SAGGKTLYVVRITRRVRVDGKLYEVTLTLVAESEEEAEEALRKLAEELEALFPDEIRIEVEKVELPPSAGGS [r16_475_TrROS_Hall],3.93 ± 0.13
11,SAGGSAGGSMKVVVTAKLPGGEVLQKTIPVDESVLKKMSKEEVIELLKKEGLPENVEIKFEPKSAGGSAGGS [r12_742_JUSTAS],1.34 ± 0.067

# Assay: folding stability dG unfold from chymotrypsin proteolysis; higher = more stable
# In short: as §1
row,Sequence,folding stability dG unfold [kcal/mol]
1,SAGGSAGGSAGGMKVIKLPGLTVEIEPGYSPSEPVKITITDPKTGKVTEYEIKIPPEELPSAGGSAGGSAGG [r7_834_JUSTAS],1.26 ± 0.021
2,SAGGDEIVERVRQLFEDLGFPVEIVDDDAPDGVLRVRISPEAVEKLGPLVINLPFPDIKEVRTELLPSAGGS [r8_318_TrMRF],1.5 ± 0.015
3,SAGGSAGGSAGDVPPSETVTITVSSEAEKEAIKKEHPEVNLTFTEAEPPVAFDPTSDVTASAGGSAGGSAGG [r17_126_JUSTAS],1.27 ± 0.15
4,SAGMIKVEVVVPPEDPSKPPSEEELRALAEEVVRELGLDPAKHPIEIKREVVDPEKGVLRYTITVKLPSAGG [r19_244_JUSTAS],2.87 ± 0.069
5,SAGGSFEPKREIEITLPNGREIEVWRYPGEGQMWVKLRFPNNGQKVEIPVKSPEDAEDSLKKFLKNSAGGSA [r2_70_TrROS],-0.334 ± 0.35
6,SAMRIVVPYRETLRLTGLPEDTPLEEFRERFERIFRRLMERGVRPVRIEIYEIGDERYIVVEIETPGGASAG [r14_158_TrMRF],4.042 ± 0.017
7,SAGGSMVSEEEIKEIVEKTAAELPEDAVEPVTVTIELPNPDGTTTVLTITITRSPTSISYTVSSSPAASAGG [r19_220_JUSTAS],3.27 ± 0.048
8,SAGGSAGGKKTVEIEMTVDELLAALKSLSEEELKNVKIIGKDGKEFTLEDLEKNPGKIYKIEVKSAGGSAGG [r6_428_TrROS_Hall],2.23 ± 0.074
9,SLGPLVELAELFPDFEPLGVEEEPLEDGGRLLRVIGRIPEIGAYLLIEVRLPPGGGIESIRAEWVPEDELSA [r9_274_TrMRF],4.28 ± 0.071
10,SAGGMESTSIPLEFKFEGDEEKAKKKVEEEAKKIAEEKGIEIKIEVKFDPNKPTATVTILVKGKEVEESAGG [r13_845_JUSTAS],-0.281 ± 0.25
11,SAGGSAGGSAGGSGMVNLPEPIKVTKEEPLPDGSVRYTIEYPDSTITVFKYPDGIKIESSAGGSAGGSAGGS [r4_280_JUSTAS],0.29 ± 0.24
12,SAGSPEELAEKIAEELAAEYEKKNPDKKPVKIEVKEVVVDPEGGSVTIKIKFYDPDGKPLAEPVITVESAGG [r19_53_JUSTAS],1.85 ± 0.13
13,SGSSLLSETTEFVELPDDTFATVSTSTYYIPGSGEIVTKTTVTIYPPTGPPVTTTYTSTTTPEGVLVTESSA [r9_856_JUSTAS],3.59 ± 0.15
14,SAGGSAGGSAGGKPKLIVRVKIKNENGEEIEIEIEVETLDEAKEAAKKLGFEIVEVEVLSAGGSAGGSAGGS [r10_882_TrROS_Hall],2.54 ± 0.081
15,SEAEEAARKLAEELGLEVEVVEVDEETGTVTVRVRFEDEPTVTITITFDEETGELTVTIEVRPPPPPPPESA [r9_1119_TrROS_Hall],3.51 ± 0.54
16,SAGGSAGGSAGGKTITLPPGMSEEELLEALKKAKPGDTITIEVDGKTYTLKVENGKITLTSAGGSAGGSAGG [r7_560_TrROS_Hall],3.92 ± 0.12
17,SAGGSAGGSKPELVIPITFPVLVKNPLDGKIYPVKVEIHIFYYPDKPIIEITLINPDGKPFPFSAGGSAGGS [r12_283_TrMRF],1.67 ± 0.038
18,SAGGSAGGSAMTPEELLKAAEELAKKLNLKVEIEVKKNENGELTITVKVYKNGKLVKEFEIKSAGGSAGGSA [r18_369_TrROS_Hall],4.9 ± 0.11
19,SAGGDGPPKFEPISIPIGDGVIKIWRSPNGSIHLEIMPPGGKPVASKEYPFPDGRKLKLDIQVKPPEDSAGG [r13_584_TrROS],0.252 ± 0.18
20,SAGGKVTLRAPVVVPKDKIEDFIDALREALEALGLKEFKDIEIKEIIEGDDYYIIDFEVTAEADLPELASAG [r5_575_TrMRF],2.21 ± 0.036
21,SAGGSAGGSAGKTYTLTITTENGKTITLPKDVEVVYDEKTGYLYIKNKKTNKVIKVKLKDSAGGSAGGSAGG [r17_432_TrROS_Hall],2.21 ± 0.059
